pKd: −log10 of the molar value.
Molecular target: Cys SARS2 Nsp1, fluorescein-labelled (SARS-CoV-2) (UniProt P0DTD1)
Assay: fluorescence polarisation

## 40S ribosomal subunit purified from rabbit reticulocytes (complex)
  pKd: 7.57

— article PMC12447786
